Data from the nanobody polyreactivity screen of Harvey et al. (2022).

Assay: yeast display, Sf9 membrane polyspecificity reagent, FACS + sequencing; frameworks hold sequencing errors
Outline: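 Galactose-induced (36–48 hours) yeast carrying a synthetic nanobody display library were exposed to 10% biotinylated, detergent-solubilized Sf9 membrane reagent at 4 °C for 1 hour. FACS followed streptavidin microbead enrichment, using low and high (top ~1%) gates for expression (anti-HA) and reagent binding (streptavidin). Colony PCR, MiSeq 2 × 250 sequencing and CDR-length filtering followed. Labels for polyreactivity reflect the gate of origin.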
For “QVQLVESGGGLVQAGGSLRLICAASGSTFIGNVMGWYRQAPGKERELVAAITSTDSTDYADSVKGRFTISRDNAKNTVYLQMNSLKPEDTAVYYCNAEYEYGSAYWSGVYYWYNYWGQGTQVTVSS”, the “polyreactivity (PSR sort gate)” value was “high polyreactivity”. With “QVQLVESGGGLVQAGGSLRLICAASGSTFLGYAMGWYRQAPGKERELVAAISSGGGTYADSVKGRFTISRDNAKNSVYLQMNSLKPEDTAVYYCNADYSTPYRMDYWGQGTQVTVSS” the “polyreactivity (PSR sort gate)” value was “low polyreactivity”. In the case of “QVQLVESGGGLVQAGGSLRLICAASGSTFPKYAMGWYRQAPGKERELVASISVTTGSTYYADSVKGRFTISRDYAKNTVYLQMNSLKPEDTAVYYCAKRTYSRKFRGAYNYWGQGTQVTVSS”, the “polyreactivity (PSR sort gate)” value is reported as “high polyreactivity”. In the case of “QVQLVESGGGLVQAGGSLRLICAASGSTFPVNAMGWYRQAPGKERELVAAIRSSTGRTYYADSVKGRFTISRDNAKNTVYLQMNSLKPEDTAVYYCAAYYLGQYEYDYWGQGTQVTVSS”, the “polyreactivity (PSR sort gate)” value is reported as “low polyreactivity”. With “QVQLVESGGGLVQAGGSLRLICAASGSTFRKYVMGWYRQAPGKERELVAAITKNGGSTYYADSVKGRFTISRDNAKNTVYLQMNSLKPEDTAVYYCATLRTGRVGNQDYDYWGQGTQVTVSS” the “polyreactivity (PSR sort gate)” value was “high polyreactivity”. With “QVQLVESGGGLVQAGGSLRLICAASGSTFSQYTMGWYRQAPGKERELVAAITGSGGGTYYADSVKGRFTISRDNAKNTVYLHMESLKPVDTAVYYCAALTLNEKYTSRRGVYYWGQGSQVTVSS” the “polyreactivity (PSR sort gate)” value was “high polyreactivity”. In the case of “QVQLVESGGGLVQAGGSLRLICAASGSTFSYYAMGWYRQAPGKEMELVAAITSGSSTNYADSVKGRFTISRDNAKNTVYLQMNSLKPEDTAVYYCAASPQPKTYRRRYYYWGQGTQVTVSS”, the “polyreactivity (PSR sort gate)” value is reported as “high polyreactivity”. For “QVQLVESGGGLVQAGGSLRLICAASGSTFYSYAMGWYRQVPGKERELVAAISRRGGSTYYADSVKGRFTISRDNAKNTVYLQMNSLKPEDTAVYYCAADWSRSSAEVDYWGQGTQVTVSS”, the “polyreactivity (PSR sort gate)” value was “high polyreactivity”. In the case of “QVQLVESGGGLVQAGGSLRLICAASGSTIVYYAMAWYRQAPGKERELVAAISRVGSTNYADSVKGRFTISRDNAKNTVYLQMNSLKPEDTAVYYCNAERSRRYSGWVNYAPLNYWGQGTQVTVSS”, the “polyreactivity (PSR sort gate)” value is reported as “low polyreactivity”. With “QVQLVESGGGLVQAGGSLRLICAASGSTIYSYAMGWYRQAPGKEREMVAANDWSGTSTYYADSVKGRFTISRDNAKNTVYLQMNSLKPVDTAVYYCNARKRRSYQGGYYYSLRNEYWGQGTQVTVSS” the “polyreactivity (PSR sort gate)” value was “high polyreactivity”. With “QVQLVESGGGLVQAGGSLRLICAASGSTSLVYAMGWYRQAPGKERDLVAAISWSGGSTYYADSVKGRFTISRDNAKNTVYLQMNSLKPEDTAVYYCAAEYYGYWEYDYWGQGTQVTVSS” the “polyreactivity (PSR sort gate)” value was “high polyreactivity”. For “QVQLVESGGGLVQAGGSLRLICAASGSTSPTNAMGWYRQAPGKEREFVAAIRGSGSSTRYADSVKGRFTISRDNAKNTVYLQMNSLKPEDTAVYYFDYWGQGTQVTVSS”, the “polyreactivity (PSR sort gate)” value was “low polyreactivity”. With “QVQLVESGGGLVQAGGSLRLICAASGSTVYNAMGWYRQAPGTEREFVAVITDSDGSTYYADSVKGRFTISRDNAKNTVYLQMNSLKPEDTAVYDCAADDYAYSYGYWLTYDYWGQGTQVTVSS” the “polyreactivity (PSR sort gate)” value was “low polyreactivity”. For “QVQLVESGGGLVQAGGSLRLICAASGTFRINAMGWYRQAPGKEREFVATITSGGSTNYADSVKGRFTISRDNAKNTVYLQMNSLKPEDTAVYYCSRTRKIAGYYFWGQGTQVTVSS”, the “polyreactivity (PSR sort gate)” value was “high polyreactivity”. For “QVQLVESGGGLVQAGGSLRLICAASGTNFVFNAIGWYRQAPGKERELVAINSGGSTYYADSVKGRFTNSRDNAKNTVFLQMNSLIPEDTAVYYCAKDRLRVWRFDYWGQGTQVTVST”, the “polyreactivity (PSR sort gate)” value was “low polyreactivity”. In the case of “QVQLVESGGGLVQAGGSLRLICAASGYIFATYAMGWYRQAPGKERELVAAITSTGSTYYADSVKGRFTISRDNAKNTVYLQMNSLKPEDTAVYYCAAVSGYRARYYLYYYWGQGTQVTVSS”, the “polyreactivity (PSR sort gate)” value is reported as “high polyreactivity”. In the case of “QVQLVESGGGLVQAGGSLRLICAASGYTFKIKGMGWYRQAPGKERELVATIRAGGGNTYYADSVKGRFTISRDNAKNTVYLQMNSLKPEDTAVYYCNARYLRRTMEYWGQGTQVTVSS”, the “polyreactivity (PSR sort gate)” value is reported as “high polyreactivity”. With “QVQLVESGGGLVQAGGSLRLICAASGYTFLDYARGWYRQAPGKERELVASITSSGGSTYYADSVKGRFTISRDNAKNTVFLQMMSLIPEDTAVYYCASDGCIYYYFTLRYGYWGQGTQVTVSS” the “polyreactivity (PSR sort gate)” value was “low polyreactivity”. With “QVQLVESGGGLVQAGGSLRLICAASGYTFSFYAMGWYIQAPGKERELVAAISRSGGSTYYADSVKGRFTISRDNAKNTVYLQMNSLKPEYTAVYYCAARWPGAYHEYGYWGQGTQVTVSS” the “polyreactivity (PSR sort gate)” value was “high polyreactivity”. For “QVQLVESGGGLVQAGGSLRLICAASGYTFYAYAMGWYRQAPGKERELVAAITSGSSTYYADSVKGRFTISRDNAKNTVYLQMNSLKQEDTAVYYCASRIRGWRLLTSYYWGQGTQVTVSS”, the “polyreactivity (PSR sort gate)” value was “low polyreactivity”. In the case of “QVQLVESGGGLVQAGGSLRLICAASVSTFRKYAMGRYRQAPGKEREFVAAISSSGGRTYYADSVKGRFTISRDNAKNTVYLQMNSLKPEDTAVYYCNAYFRYSYDYWGQGTQVTVSS”, the “polyreactivity (PSR sort gate)” value is reported as “high polyreactivity”. In the case of “QVQLVESGGGLVQAGGSLRLICAATGITLGYYAMGWYRQAPGKERELVAAISYRGGNTYYADSVKGRFTISRDNAKNTVYLQMNSLKPEDTAVYYCNADLGYESGWWSKYDYWGQGTQVTVSS”, the “polyreactivity (PSR sort gate)” value is reported as “low polyreactivity”. In the case of “QVQLVESGGGLVQAGGSLRLICAATGRNFRYYAMGWYRQAAGKERQLVAAIRNGGSTYYADSVKGRFTISRDNAKNTVYLQMNSLKPEDTAVYYCAGRYNYVSHRGGDWGHGTQVTVSS”, the “polyreactivity (PSR sort gate)” value is reported as “high polyreactivity”. In the case of “QVQLVESGGGLVQAGGSLRLICAAYGSTFVTNVMGWYRQAPGKERELVAAISARGGSTYYADSVKGRFTISRDNAKNTVYLQMNSLKPEDTAVYYCNAVVRPWQSYYYWGQGTQVTVSS”, the “polyreactivity (PSR sort gate)” value is reported as “high polyreactivity”. In the case of “QVQLVESGGGLVQAGGSLRLICADSGLIFRWYAMGWYRQAPGKERELVAAISRRGGTTNYADSVKGRFTISRDNAKNTVYLQMNSLKPEDTAVYYCAVSGGFYWGQGTQVTVSS”, the “polyreactivity (PSR sort gate)” value is reported as “high polyreactivity”. With “QVQLVESGGGLVQAGGSLRLICADSGRILGINAMGWYRQAPGKERELVAAISSGGSTYYADSVKGRFTISRDNAKNTVYLQMNSLKPEDTAVYYCNVGSYAGWSDHPRYGYWGQGTQVTVSS” the “polyreactivity (PSR sort gate)” value was “high polyreactivity”. For “QVQLVESGGGLVQAGGSLRLICADSGSIFDGNVMGWYRQAPGKERDLVAAISGARTNYADSVKGRFTISRDNAKNTVYLQMNSLKAEDTAVYYCNVLPVGSEYDYWGQGTQVTVST”, the “polyreactivity (PSR sort gate)” value was “low polyreactivity”. For “QVQLVESGGGLVQAGGSLRLICDASGFTFGVYAMGWYRQAPGKETELVAAISTTVGSTYYADSVKGRFTISRDNAKNNVYLQLNRLKPEDTALYYCAAEYTGYLNYYIYEYWGQGTQVTVSS”, the “polyreactivity (PSR sort gate)” value was “low polyreactivity”. With “QVQLVESGGGLVQAGGSLRLICDASGRIFRSYAMGWYRQAPGKERELVAAINWRGGSTFYADSVKGRFTISRDNAKNTVYLQMNSLKPEDTAVYYCARRGYRQSGDYWGQGTQVTVSS” the “polyreactivity (PSR sort gate)” value was “low polyreactivity”. With “QVQLVESGGGLVQAGGSLRLICEASGFIFDDNAIGSYRQAPGKERELVAAITSGGGSTYYADSVKGRCTISRDYAKNTVYLHMNSLKPEDTAVYYCNAVPSQHDEFDYWGQGTQVTVSS” the “polyreactivity (PSR sort gate)” value was “low polyreactivity”. For “QVQLVESGGGLVQAGGSLRLIFAASGFTFGGYAMGWYRQGPGKERELVAGISYRGGSTYYADSVKGRFTISRDNAKNTVYLQMNSLKPEDTAVYYCAADRGYPGKVDYWGQGTQVTVSS”, the “polyreactivity (PSR sort gate)” value was “low polyreactivity”. With “QVQLVESGGGLVQAGGSLRLIFAASGIIFGRYPMGWYRPAPGKERELVAAITSGGSTSYADSVKGRFTISRDNAKNTVYLQMNSLKPEDTAVYYCAVVFVWGWPGYYWGQGTQVTVSS” the “polyreactivity (PSR sort gate)” value was “high polyreactivity”. In the case of “QVQLVESGGGLVQAGGSLRLISAASGSIFAKYAMGWYRHAPGKERELVAAITGSGGSTYYADSVKGRFTISRDNAKNTVYLQMNSMKPEDPAVYYCAKRRPRYTYNYCGQGTQVTVSS”, the “polyreactivity (PSR sort gate)” value is reported as “high polyreactivity”. For “QVQLVESGGGLVQAGGSLRLISAASGSTFPPYSMGWYSQAPGKEWEVVADITRRGASTYYADSVKVRFTISRDNAKNTVYLQMNSLKPEDTAVYYCAARYYDQYYSGFDYWGQGTQVTVSS”, the “polyreactivity (PSR sort gate)” value was “high polyreactivity”. In the case of “QVQLVESGGGLVQAGGSLRLLCAASGFTFFRYAKGWYRQAPGKERELLATINWSGGRTYYADSVKGRFTISRDNAKNTVYLQMNSLKPEDTAVYYSNAYYPSSFWRMDYWGQGTQVTVSS”, the “polyreactivity (PSR sort gate)” value is reported as “high polyreactivity”. In the case of “QVQLVESGGGLVQAGGSLRLNCAASGGIFAYNAMGWYRQAPGKEMELVAAITYGGGSTYYADSVKGRFTISRDNAKNTVYLQMNSLKPEDTAVYYCATRGHYHAFYYTYPRYDSWGQGTQVTVSS”, the “polyreactivity (PSR sort gate)” value is reported as “low polyreactivity”. With “QVQLVESGGGLVQAGGSLRLNCAASGRIFGYNDMGWSRQAPGKERELVAAIDYSAGSTYYADSVKGRFTISRDNAKNTVNLQMNSLKPEDTAVYYCNTDSESSLLSSRGYWGQGTQVTVSS” the “polyreactivity (PSR sort gate)” value was “low polyreactivity”. With “QVQLVESGGGLVQAGGSLRLNCAASGRIFKYNTRGWYRQAPGKERQLVAAISLSTGSGGGTRYADSVKGRFTISRDNAKNTVYLKMNSLNPEDTAVYYCAARHRYTNEYDYWGQGTQVTVSS” the “polyreactivity (PSR sort gate)” value was “low polyreactivity”. In the case of “QVQLVESGGGLVQAGGSLRLNCAASGSIFDHYAMGWYRQAPGKERELVAAINIRTGYTYYADSVKGRFTISRDNAKNTVYLQMNSLKPEDTAVYYCNRVVRGFVRHLDYWGQGTQVTVSS”, the “polyreactivity (PSR sort gate)” value is reported as “low polyreactivity”. With “QVQLVESGGGLVQAGGSLRLRCAAMGWYRQAPWKERELVAGITRDGNTYYADSVKGRFTISRDNAKNTVYLQMNSLKPEDTAVYYCAAKHPKKYSYWGQGTQVSVSS” the “polyreactivity (PSR sort gate)” value was “low polyreactivity”. With “QVQLVESGGGLVQAGGSLRLRCAASARIYDTYAMGWYRQAPGKERELVASISIDGSTYYADSVKGRFTISRDNAKNTVYLQMNSLKREDTAVYYCNADGRYYTVRFEYWGQGTQVTVSS” the “polyreactivity (PSR sort gate)” value was “low polyreactivity”. In the case of “QVQLVESGGGLVQAGGSLRLRCAASARTFAGYALGWYRQAPGKERELVAAITTGGSTKYADSVKGRFTISRDNAKNTVYLQMNSLKQEDTAVYYCAAESYYKYFNKYDYWGQGTQVTVSS”, the “polyreactivity (PSR sort gate)” value is reported as “high polyreactivity”. With “QVQLVESGGGLVQAGGSLRLRCAASGFIFCQYSMGWYRQAPGKERELVAAITWGGTNTYYADSVKGRFTISRDNAKNTVYLQMNSLKPEDTAVYYCAADNSPFTGNLDYWGQGTQVTVSS” the “polyreactivity (PSR sort gate)” value was “low polyreactivity”.
